Reference: publication PMC11661604 (2024)
Where two headings read alike, the source gives them in different places.

Tests used:
[1] = molecular target: T1, native Semliki Forest virus (SFV) virion (Semliki Forest virus); test: SPR
[2] = molecular target: T1, native Semliki Forest virus (SFV) virion; test: SPR; remark: listed apart in the source

Binder | Kd [1] | Kd [2]
MRTCRIHEISCGAHSTQCIPVSWRCDGENDCDSGEDEENCGNI (Fc fusion) [LA3-Fc] | 1020 nM | 1170 nM
MRTCRIHEISCGAHSTACIPVSWRCDGENDCDSGEDEENCGNI (Fc fusion) [LA3-Fc Q126A] |  | 11700 nM
MRTCAIHEISCGAHSTQCIPVSWRCDGENDCDSGEDEENCGNI (Fc fusion) [LA3-Fc R114A] |  | 1580 nM
LA1-3-Fc (Fc fusion) not shown | 523 nM | 
